How the values were obtained:
[1] = biological target: QseM (wild type, bacterial two-hybrid); test: bacterial two-hybrid
[2] = biological target: FseA (wild type, bacterial two-hybrid); test: bacterial two-hybrid
[3] = biological target: 6H-MBP-FseA (Mesorhizobium japonicum R7A); test: SEC; HiLoad 16/600 Superdex 200; 50 mM Na2HPO4/NaH2PO4 pH 6.35, 10% glycerol, 500 mM NaCl; apparent mass from the elution volume
[4] = biological target: FseA_(1–55) (Mesorhizobium japonicum R7A); test: two-hybrid; Bacteriomatch II bacterial two-hybrid in E. coli; growth on selective medium with 5 mM 3-amino-1,2,4-triazole; strength as CFU/ml on selective against non-selective medium
[5] = system: 6H-MBP-FseA (Mesorhizobium japonicum R7A (ICEMlSymR7A)?); test: EMSA; details: dimer concentration 4-130 nM; Hill slope fit, n=3; FseA EMSA: 10 mM Na phosphate pH 6.35, 220 mM NaCl, 6% glycerol, 1 mM DTT, 0.01 ug/ul poly(dI.dC), 0.1 ug/ul herring sperm DNA, 0.1-0.19 ug/ul BSA, 5 nM probe …

FseA (wild type, bacterial two-hybrid) W32A
percent of parent (% of wild-type FseA) [1]: > 90

FseA (wild type, bacterial two-hybrid) G214
percent of parent (% of wild-type FseA) [1]: > 90

QseM (wild type, bacterial two-hybrid) H22A
percent of parent (% of wild-type QseM) [2]: > 90

6H-MBP-FseA (natural protein)
stoichiometry N [3]: 2

FseA (wild type, bacterial two-hybrid) D210A
percent of parent (% of wild-type FseA) [1]: > 90

QseM (wild type, bacterial two-hybrid) (natural protein)
interaction strength relative to wild-type FseA [4]: 40%

PrdfS FseA-box probe
Kd [5]: 30 nM

QseM (wild type, bacterial two-hybrid) R28A
percent of parent (% of wild-type QseM) [2]: > 90

FseA (wild type, bacterial two-hybrid) R37A
percent of parent (% of wild-type FseA) [1]: < 10

QseM (wild type, bacterial two-hybrid) W71A
percent of parent (% of wild-type QseM) [2]: < 10

QseM (wild type, bacterial two-hybrid) R57A
percent of parent (% of wild-type QseM) [2]: > 90

QseM (wild type, bacterial two-hybrid) R68A
percent of parent (% of wild-type QseM) [2]: < 10

QseM (wild type, bacterial two-hybrid) E56A
percent of parent (% of wild-type QseM) [2]: > 90

QseM (wild type, bacterial two-hybrid) L29A
percent of parent (% of wild-type QseM) [2]: < 10

QseM (wild type, bacterial two-hybrid) D31A
percent of parent (% of wild-type QseM) [2]: < 10

FseA (wild type, bacterial two-hybrid) R219A
percent of parent (% of wild-type FseA) [1]: > 90

FseA (wild type, bacterial two-hybrid) R36A
percent of parent (% of wild-type FseA) [1]: > 90
